{"source": "IntAct's records for PubMed 10487758", "parents": {"B1": {"name": "Protein E6 (Human papillomavirus type 16), P03126 (parent)", "chain": "MHQKRTAMFQDPQERPRKLPQLCTELQTTIHDIILECVYCKQQLLRREVYDFAFRDLCIVYRDGNPYAVCDKCLKFYSKISEYRHYCYSLYGTTLEQQYNKPLCDLLIRCINCQKPLCPEEKQRHLDKKQRFHNIRGRWTGRCMSCCRSSRTRRETQL"}}}
{"variants_of": "B1", "conditions": "with ep300_human EP300, Q09472"}
{"variant": "MHQKRTAMFQDPQERPRKLPQLCTELQTTIHDIILECVYCKQQLLRREVYDFAFRDLCIVYRDGNPYAVCDKGLKFYSKISEYRHYCYSLYGTTLEQQYNKPLCDLLIRCINCQKPLCPEEKQRHLDKKQRFHNIRGRWTGRGMSCCRSSRTRRETQL", "note": "[C73G;C143G]", "effect of a mutation on the interaction": "disrupting interaction"}
{"variant": "MHQKRTAMFQDPQESATKLPQLCTELQTTIHDIILECVYCKQQLLRREVYDFAFRDLCIVYRDGNPYAVCDKCLKFYSKISEYRHYCYSLYGTTLEQQYNKPLCDLLIRCINCQKPLCPEEKQRHLDKKQRFHNIRGRWTGRCMSCCRSSRTRRETQL", "note": "[R15S;P16A;R17T]", "effect of a mutation on the interaction": "decreasing interaction"}
{"variant": "MHQKRTAMFQDPQERPRKLPQLCTELQTTIHDIILECVYCKQQLLRREVYDYAYRHLCIVYRDGNPYAVCDKCLKFYSKISEYRHYCYSLYGTTLEQQYNKPLCDLLIRCINCQKPLCPEEKQRHLDKKQRFHNIRGRWTGRCMSCCRSSRTRRETQL", "note": "[F52Y;F54Y;D56H]", "effect of a mutation on the interaction": "decreasing interaction"}
{"variants_of": "B1", "conditions": "with ep300_human EP300, Q09472", "remark": "another data set of the same source"}
{"variant": "MHQKRTAMFQDPQERPRKLPQLCTELQTTIHDIILECVYCKQQLLRREVYDYAYRHLCIVYRDGNPYAVCDKCLKFYSKISEYRHYCYSLYGTTLEQQYNKPLCDLLIRCINCQKPLCPEEKQRHLDKKQRFHNIRGRWTGRCMSCCRSSRTRRETQL", "note": "[F52Y;F54Y;D56H]", "effect of a mutation on the interaction": "disrupting interaction"}
